Experimental data reported in patent US20080234175, “Process for Designing Inhibitors of Influenza Virus Structural Protein 1” (published 2008).

B1: 16-bp dsRNA (RR) (dsRNA)
RNA 1: CCAUCCUCUACAGGCG
RNA 2: CGCCUGUAGAGGAUGG

How the values were obtained:
[1] = biological target: NS1A(1-73) RNA-binding domain of influenza A virus NS1 protein (Influenza A virus) (UniProt P03495); assay: EMSA; details: CITED Wang 1999; 10-fold higher affinity than for 55-bp dsRNA; cited from earlier work
[2] = biological target: NS1A(1-73) RNA-binding domain of influenza A virus NS1 protein (Influenza A virus, UniProt P03495 P03495:1-73); assay: sedimentation equilibrium, 25 C, 1:1 dimer:duplex; summarized as ~1 uM; details: tags: pET11a expression in E. coli BL21(DE3), no tag stated; chain copies: 2 (stated, homodimer); label: 5'-32P for gel shift; unlabeled otherwise
NS1A(1-73) RNA-binding domain of influenza A virus NS1 protein, sequence (P03495 1-73, one chain of several): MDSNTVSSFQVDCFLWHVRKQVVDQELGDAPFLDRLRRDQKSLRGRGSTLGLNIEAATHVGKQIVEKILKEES

NS1A(1-73) RNA-binding domain of influenza A virus NS1 protein (Influenza A virus), sequence (P03495 1-73): as the sequence (P03495 1-73, one chain of several) above

Row | Molecule | binding signal [1] | Kd [2]
1 | 140-bp dsRNA | 10 fold | 
2 | B1 |  | 748 nM
